Columns and labels:
[1] = target: T1, SARS-CoV-2-Hu-1 S蛋白 (Sino Biological, 货号 40589-V08B1) (SARS-CoV-2, UniProt P0DTC2 14-1213); test: ELISA screen, S protein coated at 2 μg/mL, antibody at 1 μg/mL
T1 construct: extracellular domain

[2] = target: T2, SARS-CoV-2 S1蛋白 (Sino Biological, 货号 40591-V08H) (SARS-CoV-2, UniProt P0DTC2 16-685); test: ELISA, S1 coated at 2 μg/mL, antibody at 1 μg/mL
T2 construct: domain: S1

[3] = target: SARS-CoV S1蛋白 (Sino Biological, 货号 40150-V08B1) (SARS-CoV, UniProt P59594 14-667); test: ELISA, S1 coated at 2 μg/mL, antibody titrated
[4] = target: T3, SARS-CoV-2 S2蛋白 (Sino Biological, 货号 40590-V08B) (SARS-CoV-2, UniProt P0DTC2 686-1213); test: ELISA, S2 coated at 2 μg/mL, antibody at 1 μg/mL
T3 construct: domain: S2

[5] = target: SARS-CoV-2 Delta突变株 S蛋白 (假病毒) (SARS-CoV-2 Delta); test: cell-based or functional assay
[6] = target: SARS-CoV-2 Gamma突变株 S蛋白 (假病毒) (SARS-CoV-2 Gamma); test: cell-based or functional assay

B1: 广谱抗sarbecovirus和/或新冠突变株的抗体 SCM12-61 (antibody, V domains shown)
VH: QVQLVESGGGVVQPGRSLRLSCATSGFTFRSSAMHWVRQAPGKGLEWVAVIWFDGIKKYYTDSVKGRFTISRDNSKNTLYLQMNSLGAEDTAVYYCARDRAREFYPGPHCGDECYSSDAFDVWGQGTTVIVSS
VL: DIQMTQSPSSLSASVGDRVTITCRASQDINTYLNWYQQKSGRAPKFLIYAASSLQSGIPSRFSGSGSGTDFTLTIDSLQPEDFATYYCQQSHSIPYTFGQGTKLEIKR
[1]
  binding result: binds
[2]
  binding result: binds
[3]
  binding result: binds
[4]
  binding result: no binding (tested: 1μg/mL)
[5]
  假病毒中和 IC50: 0.0248 µg/mL
[6]
  假病毒中和 IC50: 0.00813 µg/mL

Reference: patent publication CN118459575A (CHENZHOU NO 1 PEOPLES HOSPITAL, dated 2024)
